T1: recombinant human CEACAM-1/CD66a protein (R&D systems; Cat. No. 2244-CM) (human, UniProt P13688 35-428)
T1 construct: Bought protein; captured on anti-His (His1K) biosensors in the Octet assay, so it carries a His tag; also called HCCM1; recombinant CEACAM-1/CD66a protein
T1 sequence (looked up): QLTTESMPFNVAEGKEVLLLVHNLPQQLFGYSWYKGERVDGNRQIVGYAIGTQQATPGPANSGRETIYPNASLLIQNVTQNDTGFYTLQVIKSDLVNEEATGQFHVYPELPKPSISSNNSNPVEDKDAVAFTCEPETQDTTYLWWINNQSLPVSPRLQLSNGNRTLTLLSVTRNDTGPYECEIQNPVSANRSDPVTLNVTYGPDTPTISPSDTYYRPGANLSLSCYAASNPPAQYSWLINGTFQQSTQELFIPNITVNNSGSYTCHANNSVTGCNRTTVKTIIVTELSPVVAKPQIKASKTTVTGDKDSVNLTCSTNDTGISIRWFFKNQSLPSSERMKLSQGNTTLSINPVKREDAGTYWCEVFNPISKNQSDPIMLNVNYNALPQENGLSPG

T2: recombinant CEACAM1 protein (UniProt P13688 35-428, limits assumed)
T2 sequence (looked up): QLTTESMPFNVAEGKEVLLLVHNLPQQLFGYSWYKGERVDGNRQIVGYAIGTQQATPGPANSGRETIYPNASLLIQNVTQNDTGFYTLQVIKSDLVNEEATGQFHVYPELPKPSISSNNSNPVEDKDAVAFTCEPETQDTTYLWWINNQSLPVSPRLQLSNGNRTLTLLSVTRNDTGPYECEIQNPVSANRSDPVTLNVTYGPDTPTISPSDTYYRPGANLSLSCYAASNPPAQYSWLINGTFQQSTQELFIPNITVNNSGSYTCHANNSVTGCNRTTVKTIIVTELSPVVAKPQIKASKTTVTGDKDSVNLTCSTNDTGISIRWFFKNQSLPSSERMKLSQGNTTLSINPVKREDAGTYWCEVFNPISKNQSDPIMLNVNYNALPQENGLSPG

T3: human CEACAM1 expressed on the cell surface (CEACAM1-Jurkat T cells); HEK293 cells transfected with human … (human, UniProt P13688 35-526)
T3 construct: whole, on cells; also called CCM1
T3 sequence (looked up): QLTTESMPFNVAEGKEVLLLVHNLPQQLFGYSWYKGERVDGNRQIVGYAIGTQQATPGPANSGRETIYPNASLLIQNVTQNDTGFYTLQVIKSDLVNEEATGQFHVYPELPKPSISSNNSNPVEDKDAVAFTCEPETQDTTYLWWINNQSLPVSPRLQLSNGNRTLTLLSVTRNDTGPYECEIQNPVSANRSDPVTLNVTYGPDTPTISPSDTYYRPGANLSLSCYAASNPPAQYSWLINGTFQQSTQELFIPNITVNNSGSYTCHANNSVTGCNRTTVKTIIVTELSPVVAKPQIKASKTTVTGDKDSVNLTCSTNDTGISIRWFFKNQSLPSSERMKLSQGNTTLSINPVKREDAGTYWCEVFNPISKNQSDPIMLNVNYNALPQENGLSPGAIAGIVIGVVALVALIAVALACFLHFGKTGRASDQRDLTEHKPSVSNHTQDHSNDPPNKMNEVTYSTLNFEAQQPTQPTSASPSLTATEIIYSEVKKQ


Legend:
[1] = target: T1, recombinant human CEACAM-1/CD66a …; assay: Octet QKe biolayer interferometry, anti-His (HIS1K) biosensors, antibody 6.25-400 nM
Procedure: The last well in each row was with a sample at the antibody concentration of 0 nM. Recombinant human CEACAM1 protein (R&D Systems; Cat. No. 2244-CM) was diluted to obtain a concentration of […], and dispensed into each well of another column at 200 μl/well.
As for the washing buffer, neutralization buffer and baseline buffer, Reagent/Kinetics buffer (10×) (Fortebio; Cat. No. 18-1092) were 1:10 diluted and dispensed into each well of a column in a row at 200 μl/well, and the regeneration buffer was dispensed into each well at 200 μl/well. Greiner 96-well plate was separately prepared, Reagent/Kinetics buffer (1×) was dispensed into each well of the number of biosensors to be used in a row at 200 μl/well, and Biosensors/Anti-His (His1K) (Fortebio; Cat. No. 18-5120) cassette was installed.

[2] = target: T2, recombinant CEACAM1 protein; assay: ELISA, coated recombinant CEACAM1, anti-human IgG-HRP detection
Procedure: Then, each well was washed 3 times with a washing buffer prepared by diluting 10 μl of Tween 20 (Sigma-Aldrich; Cat. No. P9146) in 990 μl of PBS.

[3] = target: T3, human CEACAM1 expressed on the cell …; assay: flow cytometry on CEACAM1-Jurkat T cells, PE goat anti-human F(ab)2, MFI [b]
Procedure: (§1) The CEACAM1-Jurkat T cells prepared above were treated with Fc block solution and incubated for 15 minutes. […] Herein, it is noted that the cell numbers were adjusted to 1×10⁵. The cells incubated with the antibodies were repeatedly subjected to the washing procedure of resuspending the cells in a FACS buffer and centrifuging the solution at 1,500 rpm.
(§2) PE-conjugated goat anti-human F(ab)₂; (Sigma; Cat. No. P8047)) was diluted in the FACS buffer at a volume ratio of 1:200, and then added to the cells at 100 μl/well. Cells were resuspended well and incubated at 4° C. for 30 minutes in a dark condition.
(§3) The cells incubated with the fixation buffer were repeatedly subjected to the washing procedure of resuspending the cells in a FACS buffer, centrifuging the solution at 1,500 rpm, and discarding the supernatant. The washed cells were resuspended in 200 μl of a FACS buffer, and the mean fluorescence intensities (MFIs) of the PE-labeled cells were monitored by a FACS LSR-Fortessa. All FACS analyses were conducted using the FlowJo software.

[4] = target: T3, human CEACAM1 expressed on the cell …; assay: flow cytometry on CEACAM1-Jurkat T cells; maximal MFI told of the 'other clones' as a group
Procedure: as §1, §2, §3

[5] = target: T3, human CEACAM1 expressed on the cell …; assay: flow cytometry on CEACAM1-Jurkat T cells; reference: the other clones (MFI 8,000)
Procedure: as §1, §2, §3

Kd [1]	koff [1]	kon [1]	EC50 [2]	EC50 (read off the curve) [3]	MFI [4]	fold MFI against the other clones [5]	Binder
39 nM	0.000333 s⁻¹	26100 M⁻¹ s⁻¹	–	~0.4 µg/mL	–	1.5 times	4R9_H4-n20 (antibody, human IgG4 S228P, lambda, V domains shown, also called C25-derived clone 4R9_H4-n20) VH: EVQLLESGGGLVQPGGSLRLSCAASGFNFSNYAMSWVRQAPGKGLEWVSVISHGGGSIYYADSVKGRLTISRDNSKNTLYLQMNSLRAEDTAVYYCARDPTKGYAPTFDYWGQGTLVTVSS VL: QSVLTQPPSASGTPGQRVTISCSGSSSNIGNNYVSWYQQLPGTAPKLLIYADSRRPSGVPDRFSGSKSGTSASLAISGLRSEDEADYYCGAWDLSLNGYVFGGGTKLTVLG
3.54 nM	0.000627 s⁻¹	169000 M⁻¹ s⁻¹	–	~0.04 µg/mL	8000	–	4R9_H2-2 (antibody, human IgG4 S228P, lambda, V domains shown, also called C25-derived clone 4R9_H2-2) VH: EVQLLESGGGLVQPGGSLRLSCAASGFTFSNYAMSWVRQAPGKGLEWVSVISHGGGSIYYADSVKGRLTISRDNSKNTLYLQMNSLRAEDTAVYYCARDPTKGYAPLFDYWGQGTLVTVSS VL: QSVLTQPPSASGTPGQRVTISCSGSSSNIGNNYVSWYQQLPGTAPKLLIYADSRRPSGVPDRFSGSKSGTSASLAISGLRSEDEADYYCGAWDLSLNGYVFGGGTKLTVLG
1.82 nM	0.000266 s⁻¹	133000 M⁻¹ s⁻¹	–	~0.08 µg/mL	8000	–	4R26 (antibody, human IgG4 S228P, lambda, V domains shown, also called C25-derived clone 4R26) VH: EVQLLESGGGLVQPGGSLRLSCAASGFTFSNYAMSWVRQAPGKGLEWVSVISHGGGSIYYADSVKGRLTISRDNSKNTLYLQMNSLRAEDTAVYYCARDPTKGYAPTFDYWGQGTLVTVSS VL: QSVLTQPPSASGTPGQRVTISCSGSSSNIGNNYVSWYQQLPGTAPKLLIYADSKRLSGVPDRFSGSKSGTSASLAISGLRSEDEADYYCGAWDGRLNGYVFGGGTKLTVLG

Continued, binder first:

Binder	Kd [1]	koff [1]	kon [1]	EC50 [2]	EC50 (read off the curve) [3]	MFI [4]	fold MFI against the other clones [5]
C25 (antibody, human IgG4 S228P, lambda, V domains shown, Made in ExpiHEK293F cells, protein A purified. huIgG4 is the isotype control and anti-huIgG4 the detection reagent; the isotype is not otherwise stated; also called anti-CEACAM1 antibody C25) VH: EVQLLESGGGLVQPGGSLRLSCAASGFTFSNYAMSWVRQAPGKGLEWVSVISHGGGSIYYADSVKGRLTISRDNSKNTLYLQMNSLRAEDTAVYYCARDPTKGYAPTFDYWGQGTLVTVSS VL: QSVLTQPPSASGTPGQRVTISCSGSSSNIGNNYVSWYQQLPGTAPKLLIYADSKRPSGVPDRFSGSKSGTSASLAISGLRSEDEADYYCGAWDASLNGYVFGGGTKLTVLG	34.9 nM	0.000505 s⁻¹	18200 M⁻¹ s⁻¹	0.35 nM	~0.6 µg/mL	–	–
4R9 (antibody, human IgG4 S228P, lambda, V domains shown, also called C25-derived clone 4R9) VH: EVQLLESGGGLVQPGGSLRLSCAASGFTFSNYAMSWVRQAPGKGLEWVSVISHGGGSIYYADSVKGRLTISRDNSKNTLYLQMNSLRAEDTAVYYCARDPTKGYAPTFDYWGQGTLVTVSS VL: QSVLTQPPSASGTPGQRVTISCSGSSSNIGNNYVSWYQQLPGTAPKLLIYADSRRPSGVPDRFSGSKSGTSASLAISGLRSEDEADYYCGAWDLSLNGYVFGGGTKLTVLG	3.39 nM	0.000567 s⁻¹	163000 M⁻¹ s⁻¹	–	~0.05 µg/mL	8000	–
